Here are results for one molecule from patent publication US20200207859A1 (priority 2017, published 2020).

What is called IC50 is the midpoint of a concentration-inhibition curve.

One assay has as its system K562 (CML). Description: Cell killing assay (cell proliferation, Cell Titer-Glo). Particulars: 72 hrs. It counts as cell-based. The arrangement: key to Cell Killing Activity Span: NK = no killing; NB = no binding. On the procedure:
(§1) Cytotoxicity effects of the free drug linkers and conjugates were measured with a cell proliferation assay. A total of 12500 cells in a volume of 25 μl were seeded in a 384-well flat bottom white polystyrene plate on the day of assay. Free drug-linkers and conjugates were formulated at 2× starting concentration (1000 nM for free drug linkers and 100 nM for ADCs) in RPMI medium and filtered through MultiScreen HTS 96-Well Filter Plates (Millipore). Filter sterilized samples were serial diluted (1:3) under sterile conditions and added into treatment wells. Plates were cultured at 37° C. in a CO2 incubator for 72 hrs. For cell viability measurement, 30 μl of Cell Titer-Glo® reagent (Promega Corp.) was added into each well, and plates processed as per product instructions. Relative luminescence was measured on an ENVISION® plate reader (Perkin-Elmer; Waltham, Mass.). Relative luminescence readings were converted to % viability using untreated cells as controls. Data was fitted with non-linear regression analysis, using log(inhibitor) vs. response, variable slope, 4 parameter fit equation using GraphPad Prism. Data was expressed as % relative cell viability vs. dose of free drug-linker or conjugate in nM.
For orientation: In ATP-based viability assays light output follows the ATP content of the culture.

The test system of a further assay is OPM-2 (MM). The assay is described as above. It counts as cell-based. The arrangement: key to Cell Killing Activity Span: NK = no killing; NB = no binding. The conditions noted are these: 72 hrs. Here is the method:
as §1

The next assay has as its system RPMI-8226 (MM). Described as above. The format is cell-based. Further details: key to Cell Killing Activity Span: NK = no killing; NB = no binding. Particulars: 72 hrs. On the procedure:
as §1

The test system of assay [1] is ARP-1 multiple myeloma cells. Description: Disseminated ARP-1 multiple myeloma model. The conditions noted are these: CB17 SCID mice, ARP-1 i.v., 3 mg/kg q7dx4 IV. It counts as in vivo, mouse. On the procedure:
Female CB17 SCID (severe combined immunodeficiency) were inoculated with ARP-1 cells via tail vein injection. Prior to tumor cell inoculation, animals were pre-treated with 0.4 mg/mouse Fludarabine and 2 mg/mouse Cyclophosphamide (intraperitoneal injection). Randomization and treatment was initiated 14 days post tumor inoculation. Treatment groups are outlined in Table 4. All test articles were formulated in 10 mM citrate pH 6.0, 10% sucrose and diluted with PBS. Animals were administered with the designated test article four times every 7 days (q7dx4) by intravenous injection. […] Body weights were monitored twice per week. When vehicle control animals reached the study endpoint (euthanized due to large, palpable internal tumors), three animals from the Group 2 and Group 3 were euthanized for necropsy and bone marrow harvest (from tibia and femur) for flow cytometry. The remaining animals in treated groups were monitored for up to 3 months after start of treatment.
Bone marrow cells from mouse femur and tibia were pooled and assessed for CD138 expression using the Alexa Fluor 647 mouse anti-human CD138 clone MI15 (BD Biosciences #562097) according to the manufacturer's protocol. Direct immunofluorescence flow cytometric analysis was performed using an LSRII flow cytometer and FACS Diva Software. Data was analyzed using Flowjo (Tree Star, Inc., Ashland, Oreg.).
Body weight, tissue volume, or tissue weights at study endpoint, were analyzed using a one-way analysis of variance (ANOVA) with Dunnett's multiple comparison test. A probability of less than 5% (p<0.05) was considered as significant.

B1: Conjugate A: anti-CD74 IgG with pAMF at heavy chain EU position 404 conjugated to DBCO-PEG4-maytansine (conjugate)
VH: QVQLVESGGGVVQPGRSLRLSCAASGFNFSDYGMHWVRQAPGKGLEWVAVIWYDGSISYYADSVKGRFTISRDNSKNTLYLQMNSLRAEDTAVYYCARGGTVEHGAVYGTDVWGQGTTVTVSS
VL: DIQMTQSPSSVSASVGDRVTITCRASQGIGSWLAWYQQKPGKAPKLLIYAADRLQSGVPSRFSGSGSGTDFTLTISSLQPEDFATYYCQQYHTYPLTFGGGTKVEIK
modifications: non-natural residues
Consider B1, for which, in the assay on K562 (CML), the “Cell Killing Activity Span” value is “NK” and the IC50 is more than 50 nM. Also, in the assay with OPM-2 (MM), the “Cell Killing Activity Span” value is reported as “NK” and the IC50 was more than 50 nM. Also, in the assay with RPMI-8226 (MM), the “Cell Killing Activity Span” value is “NK” and the half-maximal inhibitory concentration (IC50) is more than 50 nM. For the same molecule, in assay [1], the “body weight change (BWC)” value is listed as “No meaningful change in body weight” and the “delay of weight gain after first round of treatment” value was “approximately 20 days”. Moreover, in assay [1] (flow cytometry), the “human CD138 positive ARP-1 myeloma cells in the bone marrow (femur and tibia)” value is listed as “substantially inhibited ARP-1 growth in the bone marrow”. In assay [1] (n=3), the “kidney and ovary tissue weights” value is recorded as “comparable tissue weights to untreated age-matched control animals”.
